Experimental data reported in PMC5964048.

Target: Fluorescein-labeled murine N-WASP-VCA (a.a. 399-501) (murine) (UniProt Q91YD9)
Assay: fluorescence polarisation

“ACD-cross-linked actin oligomers (from UniProt P68135 1-377)” showed a Kd of 8 nM.
